Data from patent US20190134153A1, “IMMUNOMODULATORY EFFECT OF INHALED KINASE INHIBITOR PEPTIDES IN LUNG” (MOERAE MATRIX, INC., priority 2017, published 2019).

Legend:
Assay in all cases: Kinase Profiling Assay
Type in all cases: biochemical
Details in all cases: 100 μM
[1] = molecular target: AMPKα2(h) (Homo sapiens, UniProt P54646)
[2] = molecular target: PAK2(h) (Homo sapiens, UniProt Q13177)
[3] = molecular target: Rsk2(h) (Homo sapiens, UniProt P51812)
[4] = molecular target: DAPK2(h) (Homo sapiens, UniProt Q9UIK4)
Sequence of DAPK2(h) (Q9UIK4 whole entry): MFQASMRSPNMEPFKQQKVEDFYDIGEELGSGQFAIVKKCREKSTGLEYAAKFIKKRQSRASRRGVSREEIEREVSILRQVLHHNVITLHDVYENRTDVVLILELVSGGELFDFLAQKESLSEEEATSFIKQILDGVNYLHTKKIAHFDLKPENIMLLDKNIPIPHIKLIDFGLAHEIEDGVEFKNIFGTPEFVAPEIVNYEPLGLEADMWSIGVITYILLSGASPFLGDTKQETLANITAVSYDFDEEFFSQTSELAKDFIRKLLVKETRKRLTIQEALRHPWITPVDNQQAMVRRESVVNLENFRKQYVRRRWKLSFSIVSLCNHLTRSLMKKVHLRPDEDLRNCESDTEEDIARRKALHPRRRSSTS

[5] = molecular target: Met(Y1248C)(h) (Homo sapiens, UniProt P08581, Y1230C)
[6] = molecular target: T1, SGK2(h) (Homo sapiens, UniProt Q9HBY8)
T1 sequence (Q9HBY8 1-367): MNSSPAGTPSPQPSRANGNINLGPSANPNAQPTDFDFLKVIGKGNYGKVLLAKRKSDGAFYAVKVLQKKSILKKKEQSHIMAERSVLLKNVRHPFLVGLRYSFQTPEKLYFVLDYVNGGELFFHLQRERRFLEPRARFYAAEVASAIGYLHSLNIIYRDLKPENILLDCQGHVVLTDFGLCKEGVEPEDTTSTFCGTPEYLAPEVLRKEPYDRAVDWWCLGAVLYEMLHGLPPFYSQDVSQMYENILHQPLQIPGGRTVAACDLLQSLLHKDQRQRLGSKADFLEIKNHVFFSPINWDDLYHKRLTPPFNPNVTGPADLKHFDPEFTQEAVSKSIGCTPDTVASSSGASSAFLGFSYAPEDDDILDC

[7] = molecular target: JAK2(h) (Homo sapiens, UniProt O60674)
Sequence of JAK2(h) (O60674 whole entry): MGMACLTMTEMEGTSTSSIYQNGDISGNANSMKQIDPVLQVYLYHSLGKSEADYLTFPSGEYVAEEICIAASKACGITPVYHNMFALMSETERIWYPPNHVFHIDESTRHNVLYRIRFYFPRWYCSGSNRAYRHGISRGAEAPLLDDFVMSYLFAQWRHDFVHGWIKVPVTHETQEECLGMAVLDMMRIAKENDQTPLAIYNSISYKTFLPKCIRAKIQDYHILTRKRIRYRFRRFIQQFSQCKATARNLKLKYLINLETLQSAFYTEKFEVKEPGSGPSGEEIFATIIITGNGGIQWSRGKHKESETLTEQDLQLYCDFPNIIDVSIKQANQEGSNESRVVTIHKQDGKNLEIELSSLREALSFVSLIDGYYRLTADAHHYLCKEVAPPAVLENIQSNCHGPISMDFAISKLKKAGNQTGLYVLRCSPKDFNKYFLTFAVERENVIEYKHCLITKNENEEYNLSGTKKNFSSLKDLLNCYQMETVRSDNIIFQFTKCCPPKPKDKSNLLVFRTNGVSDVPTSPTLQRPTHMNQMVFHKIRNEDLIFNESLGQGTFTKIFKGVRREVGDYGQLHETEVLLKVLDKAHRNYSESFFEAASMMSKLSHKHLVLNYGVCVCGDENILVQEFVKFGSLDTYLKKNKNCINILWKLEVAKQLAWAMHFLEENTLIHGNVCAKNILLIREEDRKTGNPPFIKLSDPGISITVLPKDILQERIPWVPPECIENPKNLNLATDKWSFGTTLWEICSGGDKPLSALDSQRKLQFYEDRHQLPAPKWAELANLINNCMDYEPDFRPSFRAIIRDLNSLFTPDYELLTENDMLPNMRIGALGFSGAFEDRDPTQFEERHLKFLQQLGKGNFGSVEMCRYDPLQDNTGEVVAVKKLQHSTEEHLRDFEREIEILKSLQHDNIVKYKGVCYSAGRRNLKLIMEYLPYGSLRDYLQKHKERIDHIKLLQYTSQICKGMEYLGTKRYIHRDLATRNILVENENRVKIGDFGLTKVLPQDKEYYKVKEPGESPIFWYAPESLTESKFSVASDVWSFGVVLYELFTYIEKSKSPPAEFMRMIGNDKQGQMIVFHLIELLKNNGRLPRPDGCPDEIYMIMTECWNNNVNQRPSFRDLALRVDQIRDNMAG

[8] = molecular target: BTK(R28H)(h) (Homo sapiens, UniProt Q06187, R28H)
Sequence of BTK(R28H)(h) (Q06187 whole entry R28H): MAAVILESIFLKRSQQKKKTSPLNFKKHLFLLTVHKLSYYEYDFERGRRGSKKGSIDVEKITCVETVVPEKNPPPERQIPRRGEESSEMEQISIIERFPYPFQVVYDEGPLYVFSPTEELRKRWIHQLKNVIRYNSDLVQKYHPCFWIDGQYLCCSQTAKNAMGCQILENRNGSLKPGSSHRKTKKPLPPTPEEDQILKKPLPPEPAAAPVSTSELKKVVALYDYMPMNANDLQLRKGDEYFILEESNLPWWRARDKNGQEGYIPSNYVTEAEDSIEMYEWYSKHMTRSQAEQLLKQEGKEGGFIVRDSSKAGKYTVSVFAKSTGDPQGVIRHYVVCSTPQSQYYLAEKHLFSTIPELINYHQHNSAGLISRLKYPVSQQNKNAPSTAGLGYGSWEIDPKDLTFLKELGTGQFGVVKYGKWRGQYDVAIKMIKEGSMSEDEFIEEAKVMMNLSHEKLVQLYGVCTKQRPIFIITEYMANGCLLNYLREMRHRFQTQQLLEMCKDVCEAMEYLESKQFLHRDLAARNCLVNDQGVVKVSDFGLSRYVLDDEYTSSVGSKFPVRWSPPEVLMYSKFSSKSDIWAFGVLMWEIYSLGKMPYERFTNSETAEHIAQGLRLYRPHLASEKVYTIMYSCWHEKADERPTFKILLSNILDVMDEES

[9] = molecular target: Fgr(h) (Homo sapiens, UniProt P09769)
[10] = molecular target: Met(h) (Homo sapiens, UniProt P08581)
[11] = molecular target: T2, EphB4(h) (Homo sapiens, UniProt P54760)
T2 sequence (P54760 16-987): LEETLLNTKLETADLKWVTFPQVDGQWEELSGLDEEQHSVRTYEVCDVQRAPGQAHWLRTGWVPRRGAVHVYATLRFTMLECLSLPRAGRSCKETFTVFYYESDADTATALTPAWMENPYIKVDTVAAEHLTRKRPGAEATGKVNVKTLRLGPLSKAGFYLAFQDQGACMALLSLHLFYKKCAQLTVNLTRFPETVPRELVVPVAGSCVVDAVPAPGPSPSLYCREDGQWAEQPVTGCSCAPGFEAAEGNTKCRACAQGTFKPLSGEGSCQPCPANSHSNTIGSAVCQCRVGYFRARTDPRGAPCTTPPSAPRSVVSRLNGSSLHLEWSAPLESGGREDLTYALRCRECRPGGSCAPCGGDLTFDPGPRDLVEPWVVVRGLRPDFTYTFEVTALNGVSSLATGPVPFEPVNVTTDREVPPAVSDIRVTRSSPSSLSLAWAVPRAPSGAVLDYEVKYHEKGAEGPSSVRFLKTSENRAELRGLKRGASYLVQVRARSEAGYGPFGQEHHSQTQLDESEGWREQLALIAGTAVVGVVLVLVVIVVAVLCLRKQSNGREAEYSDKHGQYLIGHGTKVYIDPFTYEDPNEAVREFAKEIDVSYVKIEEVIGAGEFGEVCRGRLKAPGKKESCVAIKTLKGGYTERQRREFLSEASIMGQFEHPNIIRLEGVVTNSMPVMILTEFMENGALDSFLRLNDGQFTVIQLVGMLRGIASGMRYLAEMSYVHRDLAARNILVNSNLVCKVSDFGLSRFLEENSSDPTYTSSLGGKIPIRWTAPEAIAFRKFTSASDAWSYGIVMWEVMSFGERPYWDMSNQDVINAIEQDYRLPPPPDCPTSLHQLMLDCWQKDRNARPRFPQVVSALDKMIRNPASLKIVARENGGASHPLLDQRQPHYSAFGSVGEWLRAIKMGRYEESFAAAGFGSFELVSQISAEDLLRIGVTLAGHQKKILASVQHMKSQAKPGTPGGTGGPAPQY

[12] = molecular target: Rsk3(h) (Homo sapiens, UniProt Q15349)
Sequence of Rsk3(h) (Q15349 whole entry): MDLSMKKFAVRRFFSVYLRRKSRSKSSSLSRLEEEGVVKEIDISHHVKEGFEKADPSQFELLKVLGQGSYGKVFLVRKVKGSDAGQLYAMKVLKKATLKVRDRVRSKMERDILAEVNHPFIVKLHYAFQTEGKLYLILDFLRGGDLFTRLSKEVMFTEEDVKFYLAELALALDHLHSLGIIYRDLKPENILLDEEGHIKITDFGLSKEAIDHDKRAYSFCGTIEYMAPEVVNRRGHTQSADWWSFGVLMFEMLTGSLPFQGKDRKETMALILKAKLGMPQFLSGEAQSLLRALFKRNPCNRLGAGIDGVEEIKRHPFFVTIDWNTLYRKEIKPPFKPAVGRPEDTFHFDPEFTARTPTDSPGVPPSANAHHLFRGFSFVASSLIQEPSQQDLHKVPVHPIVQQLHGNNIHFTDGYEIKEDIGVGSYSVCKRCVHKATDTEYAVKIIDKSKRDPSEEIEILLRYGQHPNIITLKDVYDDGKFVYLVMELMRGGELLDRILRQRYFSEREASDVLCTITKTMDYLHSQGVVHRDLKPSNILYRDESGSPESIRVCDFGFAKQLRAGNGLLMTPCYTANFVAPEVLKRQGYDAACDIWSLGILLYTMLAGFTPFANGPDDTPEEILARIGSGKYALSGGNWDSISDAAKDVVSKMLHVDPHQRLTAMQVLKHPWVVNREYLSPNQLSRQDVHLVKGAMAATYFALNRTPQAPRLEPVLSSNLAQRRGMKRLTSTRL

[13] = molecular target: T3, MKK6(h) (Homo sapiens, UniProt P52564)
T3 sequence (P52564 1-334): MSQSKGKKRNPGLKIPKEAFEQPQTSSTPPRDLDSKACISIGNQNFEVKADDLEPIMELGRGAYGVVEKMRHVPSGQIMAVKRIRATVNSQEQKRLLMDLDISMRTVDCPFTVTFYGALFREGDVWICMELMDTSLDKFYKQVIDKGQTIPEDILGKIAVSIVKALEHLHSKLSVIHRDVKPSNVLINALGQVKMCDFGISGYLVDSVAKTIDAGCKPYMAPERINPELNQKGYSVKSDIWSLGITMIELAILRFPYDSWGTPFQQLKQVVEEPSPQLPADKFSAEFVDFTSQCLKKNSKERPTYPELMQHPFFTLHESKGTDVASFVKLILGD

[14] = molecular target: Flt3(D835Y)(h) (Homo sapiens, UniProt P36888, D835Y)

Sequence of Rsk2(h) (P51812 whole entry): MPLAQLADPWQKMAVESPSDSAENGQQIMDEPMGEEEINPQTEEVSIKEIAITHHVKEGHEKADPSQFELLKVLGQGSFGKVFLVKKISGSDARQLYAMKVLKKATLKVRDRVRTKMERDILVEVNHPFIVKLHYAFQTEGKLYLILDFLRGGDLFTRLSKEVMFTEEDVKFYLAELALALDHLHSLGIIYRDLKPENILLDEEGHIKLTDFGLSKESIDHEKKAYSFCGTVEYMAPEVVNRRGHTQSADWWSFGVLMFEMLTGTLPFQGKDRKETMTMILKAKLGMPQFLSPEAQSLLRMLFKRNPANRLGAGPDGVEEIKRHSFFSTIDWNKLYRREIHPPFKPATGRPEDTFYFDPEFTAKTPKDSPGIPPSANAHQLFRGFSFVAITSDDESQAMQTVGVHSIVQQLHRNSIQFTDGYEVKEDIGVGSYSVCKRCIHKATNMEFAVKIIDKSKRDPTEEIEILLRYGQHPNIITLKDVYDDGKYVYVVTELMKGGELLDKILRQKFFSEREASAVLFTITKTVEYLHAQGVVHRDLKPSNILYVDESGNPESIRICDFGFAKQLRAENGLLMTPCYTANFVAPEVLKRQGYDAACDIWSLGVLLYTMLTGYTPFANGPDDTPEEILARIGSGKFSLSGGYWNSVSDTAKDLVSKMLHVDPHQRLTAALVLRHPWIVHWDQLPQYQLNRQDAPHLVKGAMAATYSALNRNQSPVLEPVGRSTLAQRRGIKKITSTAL
Sequence of PAK2(h) (Q13177 whole entry): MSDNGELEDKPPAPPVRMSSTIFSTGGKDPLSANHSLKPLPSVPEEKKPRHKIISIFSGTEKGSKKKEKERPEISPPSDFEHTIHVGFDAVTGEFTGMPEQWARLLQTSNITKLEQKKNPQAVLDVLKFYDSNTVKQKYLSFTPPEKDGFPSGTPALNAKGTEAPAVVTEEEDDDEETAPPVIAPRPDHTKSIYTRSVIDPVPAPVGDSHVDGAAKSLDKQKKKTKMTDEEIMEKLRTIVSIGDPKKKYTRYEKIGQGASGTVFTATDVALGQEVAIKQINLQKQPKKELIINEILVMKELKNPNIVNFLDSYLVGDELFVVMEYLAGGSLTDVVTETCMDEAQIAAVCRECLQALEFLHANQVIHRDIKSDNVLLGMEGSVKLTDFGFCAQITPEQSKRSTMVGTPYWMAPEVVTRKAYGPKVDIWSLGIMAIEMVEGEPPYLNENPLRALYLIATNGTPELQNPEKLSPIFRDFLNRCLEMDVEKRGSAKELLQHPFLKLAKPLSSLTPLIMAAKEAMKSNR

Which “% activity” value [1] does the source give for FAKLAARLYRKALARQLGVAA [MMI-0300] here?
Its value is 54%.

And the “% activity” value [2]?
Its value is 65%.

What about the “% activity” value [3] of the same sequence?
The value was 51%.

What about the “% activity” value [4] of the same sequence?
The value was 32%.

And the “% activity” value [5]?
The value was 84%.

What about the “% activity” value [6] of the same sequence?
Its value is 56%.

And the “% activity” value [7]?
The value was 133%.

What about the “% activity” value [8] of the same sequence?
Its value is 74%.

And the “% activity” value [9]?
Its value is 60%.

What about the “% activity” value [10] of the same sequence?
The value was 65%.

What about the “% activity” value [11] of the same sequence?
The value was 44%.

What about the “% activity” value [12] of the same sequence?
Its value is 76%.

And the “% activity” value [13]?
Its value is 48%.

And the “% activity” value [14]?
The value was 80%.

For KAFAKLAARLYRKALARQLGVAA [MMI-0400], which “% activity” value [1] is on record?
The value was 58%.

And the “% activity” value [2]?
The value was 59%.

What about the “% activity” value [3] of the same sequence?
The value was 38%.

And the “% activity” value [4]?
Its value is 16%.

And the “% activity” value [5]?
The value was 36%.

What about the “% activity” value [6] of the same sequence?
Its value is 98%.

What about the “% activity” value [8] of the same sequence?
Its value is 24%.

What about the “% activity” value [9] of the same sequence?
Its value is 47%.

And the “% activity” value [10]?
The value was 62%.

And the “% activity” value [11]?
The value was 28%.

And the “% activity” value [12]?
Its value is 71%.

What about the “% activity” value [13] of the same sequence?
The value was 44%.

And the “% activity” value [14]?
The value was 71%.

Which results are given for YARAAARQARAKALNRQLGVA [MMI-0200]?
% activity [1]: 88%; % activity [2]: 69%; % activity [3]: 101%; % activity [4]: 92%; % activity [5]: 141%; % activity [7]: 131%; % activity [9]: 71%; % activity [10]: 71%; % activity [11]: 131%; % activity [13]: 98%

How did the “% activity” value [1] turn out when HRRIKAWLKKIKALARQLGVAA [MMI-0500] was run?
The value was 9%.

What about the “% activity” value [2] of the same sequence?
The value was 44%.

What about the “% activity” value [3] of the same sequence?
The value was 14%.

What about the “% activity” value [4] of the same sequence?
Its value is 3%.

What about the “% activity” value [5] of the same sequence?
Its value is 73%.

What about the “% activity” value [6] of the same sequence?
Its value is −1%.

And the “% activity” value [7]?
The value was 49%.

And the “% activity” value [8]?
The value was 10%.

What about the “% activity” value [10] of the same sequence?
Its value is 27%.

What about the “% activity” value [11] of the same sequence?
Its value is 38%.

And the “% activity” value [12]?
Its value is 23%.

What about the “% activity” value [13] of the same sequence?
Its value is 18%.

And the “% activity” value [14]?
Its value is 65%.
